{"source": "paper PMC11098746", "key": {"[1]": {"biological_target": "Pf34 bait (P. falciparum Pf34 ectodomain, human Fc-tagged dimeric bait) (P. falciparum)", "assay": "SPR"}, "[2]": {"biological_target": "Pf34 bait (P. falciparum Pf34 ectodomain, human Fc-tagged dimeric bait) (P. falciparum)"}, "[3]": {"biological_target": "Pf34 bait (Pf34 ectodomain with CD4d3+4, human Fc and C-tag) (Plasmodium falciparum)", "assay": "SPR"}, "[4]": {"biological_target": "PfRON6 C-terminal bait (PfRON6 residues 537-950 with CD4d3+4, human Fc and C-tag) (Plasmodium falciparum)", "assay": "SPR"}, "[5]": {"biological_target": "Izumo (Mus musculus) (UniProt Q9D9J7)", "sequence (Q9D9J7 22-319)": "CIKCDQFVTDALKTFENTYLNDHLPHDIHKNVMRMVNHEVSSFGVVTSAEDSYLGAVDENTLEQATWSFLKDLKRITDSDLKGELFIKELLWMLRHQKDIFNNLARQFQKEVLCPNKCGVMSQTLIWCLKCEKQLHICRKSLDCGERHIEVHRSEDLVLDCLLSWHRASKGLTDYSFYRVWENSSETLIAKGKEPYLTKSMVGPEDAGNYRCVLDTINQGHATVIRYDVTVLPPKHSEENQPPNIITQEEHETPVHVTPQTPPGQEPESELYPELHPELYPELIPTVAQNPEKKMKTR", "settings": "cited from earlier work"}}, "note": "“And” between values parts separate entries of the source, which are not always exact repeats. Identical values can stand only once."}
{"substance": "FGFR4-CD4-Bio-His (purified monomeric FGFR4 ectodomain) (from UniProt P22455 22-369) (receptor)", "values": [{"measurement": "Kd", "setting": "[1]", "result": "46 µM and 40 µM"}, {"measurement": "t1/2", "setting": "[1]", "result": "< 1 s and 0.4 s"}]}
{"substance": "FGFR4 prey (human fibroblast growth factor receptor 4 ectodomain, pentameric 5xNanoLuc-tagged prey) (from UniProt P22455 22-369)", "values": [{"measurement": "inhibition of NF54 sporozoite invasion of primary human hepatocytes (ISI assay) by LD1 mAb, up to 25 µg/mL", "setting": "[2]", "result": 20, "unit": "%"}, {"measurement": "inhibition of NF54 sporozoite invasion of primary human hepatocytes (ISI assay) by anti-FGFR4 rabbit pAbs, up to 2 mg/mL", "setting": "[2]", "result": 20, "unit": "%"}]}
{"substance": "FGFR4-CD4-Bio-His (purified monomeric human FGFR4 ectodomain) (from UniProt P22455 22-369) (receptor)", "values": [{"measurement": "Kd", "setting": "[3]", "result": "47 µM and 14 µM and 31 µM"}, {"measurement": "kon", "setting": "[3]", "result": "16000 M⁻¹ s⁻¹ and 44000 M⁻¹ s⁻¹ and 30000 M⁻¹ s⁻¹"}]}
{"substance": "Pf34-CD4-Bio-His (purified monomeric Pf34) (natural protein)", "values": [{"measurement": "Kd", "setting": "[4]", "result": 2.9, "unit": "µM"}, {"measurement": "koff", "setting": "[4]", "result": 0.0015, "unit": "s⁻¹"}, {"measurement": "kon", "setting": "[4]", "result": 520, "unit": "M⁻¹ s⁻¹"}]}
{"substance": "Juno (from UniProt Q9EQF4)", "values": [{"measurement": "Kd", "setting": "[5]", "result": 12, "unit": "µM"}]}
